The results in this text go back to US20130189259A1 (INSERM INSTITUT NATIONAL DE LA SANTE ET DE LA RECHERCHE …, published 2013).

Values joined by “and” are separate entries in the source; they are usually repeats but may differ in a detail not shown here. Identical values can stand only once.

Experiment [1] deals with human glycoprotein VI on human platelets (human) (UniProt Q9HCN6). In words: flow cytometry of human platelets with bacterial periplasmic extract, FITC-coupled anti-c-myc antibody [upper panel].
Experiment [2] has the same target. In words: flow cytometry, periplasmic extract on human platelets, FITC anti-c-myc. Background: A flow cytometer gives signals particle by particle.
Experiment [3] shares this target. In words: flow cytometry of washed human platelets with an irrelevant scFv, FITC-coupled anti-c-myc IgG [top panel].
Experiment [4] concerns the target T1, recombinant soluble human GPVI (GPVI-Fc) (human, UniProt Q9HCN6 21-267).
T1 construct: extracellular domain; also called soluble recombinant GPVI; purified GPVI; not shown: human Ig Fc domain
T1 sequence (looked up): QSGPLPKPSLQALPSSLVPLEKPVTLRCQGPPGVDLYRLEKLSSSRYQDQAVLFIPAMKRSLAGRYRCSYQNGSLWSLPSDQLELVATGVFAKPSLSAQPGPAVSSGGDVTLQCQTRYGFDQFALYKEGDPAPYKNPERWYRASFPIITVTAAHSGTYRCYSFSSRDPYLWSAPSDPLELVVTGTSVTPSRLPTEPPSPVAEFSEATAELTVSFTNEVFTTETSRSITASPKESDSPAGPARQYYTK
In words: SPR against immobilized GPVI (procedure as in Example 1).

Experiment [5] has as its target T1, recombinant soluble human GPVI (GPVI-Fc). Nature of the experiment: inhibition of GPVI-Fc binding to immobilized collagen, ELISA. The procedure:
(§1) FIG. 9. Inhibition of GPVI binding to immobilized collagen. GPVI-Fc was incubated on immobilized collagen in the presence of increasing amounts of antibodies: scFv 9O12.2 (triangle), or pFab (square) (A): 2 μg of GP VI-Fc; (B): 4 μg of GPVI-Fc Bound GPVI-Fc was detected using an HRP coupled anti-Fc IgG.
(In general: In an ELISA, binding on a coated surface is turned into a signal by an enzyme label.)

The target is the same in experiment [6]. In words: SPR (BIAcore 2000), GPVI-Fc immobilized on CM5, second series. The procedure:
(§2) Binding of the anti-GPVI scFv to recombinant GPVI-Fc is analyzed with surface plasmon resonance using a BIAcore 2000 system (Uppsala, Sweden). Binding studies is performed with scFv 9O12, Proteolytic Fab and parental IgG.
(§3) Recombinant GPVI-Fc is immobilized (˜600 RU) onto a Carboxy-Methyl Dextran CM5 sensor chip using the amine coupling method (Wizard procedure). Antibody is then passed over the immobilized recombinant GPVI-Fc in HBS-EP buffer (0.01 M HEPES pH 7.4, 0.15 M NaCl, 0.005% polysorbate 20 (v/v)) at a flow rate of 20 μl/min at 25° C. Kinetic constants (kₐ, kd) and affinity are determined using BIAevaluation version 3.1 software, by fitting data to binding model. HBS-EP is the running buffer. 10 mM glycine-HCl pH 2.5 injected for 30 s at 20 μl/min is the regeneration buffer. All reagents and buffers used are from Biacore.
(In general: Surface plasmon resonance follows binding to a sensor surface in real time, without labels.)

For experiment [7] the target is unchanged. Nature of the experiment: blocking ELISA: 4 µg GPVI-Fc on immobilized collagen with increasing antibody fragment; blocked ligand: fibrillar type I collagen; bound GPVI-Fc detected with HRP-coupled anti-Fc. How it is done:
as §1

For experiment [8] the target is unchanged. Nature of the experiment: SPR (BIAcore 2000), GPVI-Fc immobilized on CM5, first series. The procedure:
as §2, §3

Experiment [9] has the same target. Nature of the experiment: competition ELISA on GPVI-Fc coated plates; competitor: scFv 9O12.2 at a fixed concentration (60 µg/mL in the legend, 100 µg/ml in the methods), bound scFv detected with HRP-coupled anti-c-myc.

As to “irrelevant scFv (c-myc tagged negative control)”, the % positive platelets (FITC count) in experiment [1] was determined as 0.03%; in [3], 0.17%. Also, in experiment [2], the % positive platelets stood at 0.17%.

B1: second optimized humanized scFv 9O12.2 fragment, hscFv 9O12.2(2) (scFv)
scFv: QVQLQESGAEVKKPGASVKVSCKASGYSFTSYNMHWVRQAPGQRLEWMGGIYPGNGDTSFNQKFKGKATLTADKSSRTAYMGLSSLRPEDTAVYYCARGTVVGDWYFDVWGQGTLVTVSSGGGGSGGGGSGGGGSDVLMTQTPLSLPVSLGDQASISCRSSQSLENSNGNTYLNWYLQKPGQSPQLLIYRVSNRFSGVLDRFSGSGSGTDFTLTISSLQPEDFAIYYCLQLTHVPWTFGGGTKVEIKRSRVTVSSDQKLISEEDLN
notes: Murine VL FR1 and FR2 are kept; Detected through its c-myc flag
As usually defined, the Kd is a measure of binding affinity in units of concentration. Broadly, the koff is a measure of how fast the partners let go of each other. Broadly, the kon is the rate constant with which the complex forms. In the case of B1, in experiment [4], the Kd stood at 3.2 nM, the off-rate (koff) worked out at 0.000186 s⁻¹ and the kon came to 58000 M⁻¹ s⁻¹.

B2: murine single chain variable fragment scFv 9O12.2 (VH-(Gly4Ser)3-VL, spacer, c-myc flag) (scFv)
scFv: QVQLQESGAELVKPGASVKMSCKASGYTFTSYNMHWVKQTPGQGLEWIGGIYPGNGDTSFNQKFKGKATLTADKSSRTAYMQLSSLTSEDSAVYYCARGTVVGDWYFDVWGAGTTLTVSSGGGGSGGGGSGGGGSDVLMTQTPLSLPVSLGDQASISCRSSQSLENSNGNTYLNWYLQKPGQSPQLLIYRVSNRFSGVLDRFSGSGSGTDFTLKISRVEAEDLGVYFCLQLTHVPWTFGGGTKLEIKRSRVTVSSEQKLISEEDLN
notes: Made in the E. coli periplasm through a pelB leader; Tested as periplasmic extract or after purification on GPVI-sepharose; The monomer was isolated by size exclusion for the aggregation assay; also called mscFv 9O12.2; mscFv 9O12
As a reminder, the IC50 is the concentration at which inhibition is half-maximal. In the case of B2, the IC50 in [5] was ~1.17 µg/mL and ~42 µM. In experiment [6], the Kd came out at 2.6 nM, the dissociation rate constant (koff) was determined as 0.00017 s⁻¹ and the kon amounted to 65000 M⁻¹ s⁻¹. Further, the “IC50 (read off the curve)” value in experiment [7] was around 4 µg/mL. Besides, the Kd in experiment [8] worked out at 2.5 nM.

B3: 9O12.2 Fab fragment prepared by papain digestion of the parental IgG (Fab, V domains shown)
VH: QVQLQESGAELVKPGASVKMSCKASGYTFTSYNMHWVKQTPGQGLEWIGGIYPGNGDTSFNQKFKGKATLTADKSSRTAYMQLSSLTSEDSAVYYCARGTVVGDWYFDVWGAGTTLTVSS
VL: DVLMTQTPLSLPVSLGDQASISCRSSQSLENSNGNTYLNWYLQKPGQSPQLLIYRVSNRFSGVLDRFSGSGSGTDFTLKISRVEAEDLGVYFCLQLTHVPWTFGGGTKLEIK
notes: Papain Fab of the murine IgG1 kappa antibody; also called Fab 9O12.2; Fab 9O12
Regarding B3, the IC50 in [5] was 2.1 µg/mL and 15 nM. Further, the Kd in [6] turned out to be 2.3 nM; in [8] it was 4.5 nM. Moreover, the “IC50 (read off the curve)” value in experiment [7] was around 7 µg/mL.

B4: 9O12.2 monoclonal anti-human GPVI antibody (murine IgG1, kappa) (antibody, V domains shown)
VH: B3 VH
VL: B3 VL
notes: The VL is therefore written as 136-247; also called 9O12.2 IgG; IgG 9O12.2
For the molecule B4, the “IC50 (read off the curve)” value in [9] was around 20 µg/mL. Also, the Kd amounted to 4 nM in experiment [6] and 6.5 nM in experiment [8].
